Results reported in patent US20230242621A1 (VIR BIOTECHNOLOGY, published 2023).

Molecular target: T1, HBsAg (hepatitis B surface antigen; genotype or subtype not stated in the example) (hepatitis B virus)
T1 chain: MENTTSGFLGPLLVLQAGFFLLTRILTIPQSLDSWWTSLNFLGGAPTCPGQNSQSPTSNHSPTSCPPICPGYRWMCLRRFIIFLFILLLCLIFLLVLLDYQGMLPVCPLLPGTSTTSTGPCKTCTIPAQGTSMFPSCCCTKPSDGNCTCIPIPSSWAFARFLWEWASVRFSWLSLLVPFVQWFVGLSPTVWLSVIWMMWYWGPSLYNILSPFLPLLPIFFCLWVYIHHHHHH
Test: ELISA on HBsAg; IgG1 with wild-type Fc

B1: HBC34-v36 (IgG1 with wild-type Fc, allotype G1m17, 1) (antibody, V domains shown)
VH: ELQLVESGGGWVQPGGSQRLSCAASGRIFRSFYMSWVRQAPGKGLEWVATINQDGSEKLYVDSVKGRFTISRDNAKNSLFLQMNNLRVEDTAVYYCAAWSGNSGGMDVWGQGTTVSVSS
VL: SYELTQPPSVSVSPGQTVSIPCSGDKLGNKNVAWFQHKPGQSPVLVIYQDSKRPSGIPERFSGSNSGNTATLTISGTQAMDEAAYFCQTFDSTTVVFGGGTRLTVLG
notes: also called L-CDR2 GL
EC50: 0.7 ng/mL
